In US20110206724A1:

Tests used:
Experiment in all cases: capture ELISA on E. coli lysate
[1] = target: 150C-IM2(74) hybrid WHcAg construct (woodchuck hepatitis virus; influenza A virus)
[2] = target: HyW-IM2(-)78 hybrid WHcAg particle (woodchuck hepatitis virus; influenza A virus)
[3] = target: HyW-IM2(74) hybrid WHcAg construct (woodchuck hepatitis virus; influenza A virus)
[4] = target: WT-R-IM2(74) hybrid WHcAg construct (woodchuck hepatitis virus; influenza A virus)

Which relative binding score (Accessability) (relative score) [1] does the source give for mAb 14C2, anti-influenza M2e (antibody) here?
The relative binding score (Accessability) (relative score) was 3.

And the relative binding score (Accessability) (relative score) [2]?
Its relative binding score (Accessability) (relative score) is 3.

And the relative binding score (Accessability) (relative score) [3]?
Its relative binding score (Accessability) (relative score) is 3.

And the relative binding score (Accessability) (relative score) [4]?
The relative binding score (Accessability) (relative score) was 2.
